Laboratory results: the RNAGym collection of RNA variant scans (doi:10.7554/elife.90254)

B1: LINE1-mini (parent)
chain: GGCAGAGCUCAACACAGCGUGGCAAAGUGGCUGUGGCUAGACUGCC

Variants of: B1
Experiment: self-cleavage, relative activity (ratio to wild type); higher = more cleavage; in vitro, sequencing; the parent is a self-cleaving ribozyme
GGCAGAGCUCAGCACACCGUGGCAAAGUGGCUGUGGCUAGACUGCC [A12G G17C] gave a self-cleavage of 0.05. Work on GGCAGAGCUCAGCACAUCGUGGCAAAGUGGCUGUGGCUAGACUGCC [A12G G17U] yielded a self-cleavage of 0.05. Variant GGCAGAGCUCAGCACAACGUGGCAAAGUGGCUGUGGCUAGACUGCC [A12G G17A] has a self-cleavage of 0.02. For GGCAGAGCUCAGCACAGUGUGGCAAAGUGGCUGUGGCUAGACUGCC [A12G C18U], the self-cleavage was 0.04. In the case of GGCAGAGCUCAGCACAGGGUGGCAAAGUGGCUGUGGCUAGACUGCC [A12G C18G], the self-cleavage is reported as 0.04. For GGCAGAGCUCAGCACAGAGUGGCAAAGUGGCUGUGGCUAGACUGCC [A12G C18A], the self-cleavage was 0.03. With GGCAGAGCUCAGCACAGCGUGGCAAAGUGGCUGUGGCUGGACUGCC [A12G A39G] the self-cleavage was 0.01. For GGCAGAGCUCAGCACAGCGUGGCAAAGUGGCUGUGGCUCGACUGCC [A12G A39C], the self-cleavage was 0.04. With GGCAGAGCUCAGCACAGCGUGGCAAAGUGGCUGUGGCUUGACUGCC [A12G A39U] the self-cleavage was 0.08. Variant GGCAGAGCUCAGCACAGCGUGGCAAAGUGGCUUUGGCUAGACUGCC [A12G G33U] has a self-cleavage of 0.12. Work on GGCAGAGCUCAGCACAGCGUGGCAAAGUGGCUCUGGCUAGACUGCC [A12G G33C] yielded a self-cleavage of 0.03. GGCAGAGCUCAGCACAGCGUGGCAAAGUGGCUAUGGCUAGACUGCC [A12G G33A] gave a self-cleavage of 0.07. GGCAGAGCUCAGCACUGCGUGGCAAAGUGGCUGUGGCUAGACUGCC [A12G A16U] showed a self-cleavage of 0.05. Variant GGCAGAGCUCAGCACCGCGUGGCAAAGUGGCUGUGGCUAGACUGCC [A12G A16C] has a self-cleavage of 0.06. Work on GGCAGAGCUCAGCACGGCGUGGCAAAGUGGCUGUGGCUAGACUGCC [A12G A16G] yielded a self-cleavage of 0.03. Work on GGCAGAGCUCAGCACAGCGUGGCAAAGGGGCUGUGGCUAGACUGCC [A12G U28G] yielded a self-cleavage of 0.01. With GGCAGAGCUCAGCACAGCGUGGCAAAGCGGCUGUGGCUAGACUGCC [A12G U28C] the self-cleavage was 0.02. Variant GGCAGAGCUCAGCACAGCGUGGCAAAGAGGCUGUGGCUAGACUGCC [A12G U28A] has a self-cleavage of 0.04. GGCAGAGCUCAGCACAGCGUGGCAGAGUGGCUGUGGCUAGACUGCC [A12G A25G] showed a self-cleavage of 0.03. GGCAGAGCUCAGCACAGCGUGGCACAGUGGCUGUGGCUAGACUGCC [A12G A25C] showed a self-cleavage of 0.16. Variant GGCAGAGCUCAGCACAGCGUGGCAUAGUGGCUGUGGCUAGACUGCC [A12G A25U] has a self-cleavage of 0.03. Variant GGCAGAGCUCAGCACAGCGUGGCAAAGUUGCUGUGGCUAGACUGCC [A12G G29U] has a self-cleavage of 0.02. Variant GGCAGAGCUCAGCACAGCGUGGCAAAGUAGCUGUGGCUAGACUGCC [A12G G29A] has a self-cleavage of 0.03. In the case of GGCAGAGCUCAGCACAGCGUGGCAAAGUCGCUGUGGCUAGACUGCC [A12G G29C], the self-cleavage is reported as 0.02. Work on GGCAGAGCUCAGCACAGCGUGGCAAAGUGGCUGUGGCUAGAAUGCC [A12G C42A] yielded a self-cleavage of 0.05. In the case of GGCAGAGCUCAGCACAGCGUGGCAAAGUGGCUGUGGCUAGAUUGCC [A12G C42U], the self-cleavage is reported as 0.07. In the case of GGCAGAGCUCAGCACAGCGUGGCAAAGUGGCUGUGGCUAGAGUGCC [A12G C42G], the self-cleavage is reported as 0.02. GGCAGAGCUCAGCACAGCGUGGCUAAGUGGCUGUGGCUAGACUGCC [A12G A24U] showed a self-cleavage of 0.03. Variant GGCAGAGCUCAGCACAGCGUGGCCAAGUGGCUGUGGCUAGACUGCC [A12G A24C] has a self-cleavage of 0.02. GGCAGAGCUCAGCACAGCGUGGCGAAGUGGCUGUGGCUAGACUGCC [A12G A24G] gave a self-cleavage of 0.03. In the case of GGCAGAGCUCACCACAGCGUGGCAAAGUGGCUGUGGCUAGACUUCC [A12C G44U], the self-cleavage is reported as 0.03. GGCAGAGCUCAGCACAGCGUGGCAAAGUGGCUGUGCCUAGACUGCC [A12G G36C] showed a self-cleavage of 0.04. GGCAGAGCUCAGCACAGCGUGGCAAAGUGGCUGUGUCUAGACUGCC [A12G G36U] showed a self-cleavage of 0.03. For GGCAGAGCUCAGCACAGCGUGGCAAAGUGGCUGUGACUAGACUGCC [A12G G36A], the self-cleavage was 0.06. Work on GGCAGAGCUCACCACAGCGUGGCAAAGUGGCAGUGGCUAGACUGCC [A12C U32A] yielded a self-cleavage of 0.03. With GGCAGAGCUCACCACAGCGUGGCAAAGUGGCCGUGGCUAGACUGCC [A12C U32C] the self-cleavage was 0.05. Work on GGCAGAGCUCACCACAGCGUGGCAAAGUGGCGGUGGCUAGACUGCC [A12C U32G] yielded a self-cleavage of 0.06. GGCAGAGCUCAGCACAGCGUGGCAAUGUGGCUGUGGCUAGACUGCC [A12G A26U] showed a self-cleavage of 0.03. With GGCAGAGCUCAGCACAGCGUGGCAACGUGGCUGUGGCUAGACUGCC [A12G A26C] the self-cleavage was 0.03. GGCAGAGCUCAGCACAGCGUGGCAAGGUGGCUGUGGCUAGACUGCC [A12G A26G] gave a self-cleavage of 0.03. Variant GGCAGAGCUCAGCACAGCGUGGCAAAGUGGCAGUGGCUAGACUGCC [A12G U32A] has a self-cleavage of 0.15. GGCAGAGCUCAGCACAGCGUGGCAAAGUGGCCGUGGCUAGACUGCC [A12G U32C] showed a self-cleavage of 0.14. Work on GGCAGAGCUCAGCACAGCGUGUCAAAGUGGCUGUGGCUAGACUGCC [A12G G22U] yielded a self-cleavage of 0.02. For GGCAGAGCUCAGCACAGCGUGACAAAGUGGCUGUGGCUAGACUGCC [A12G G22A], the self-cleavage was 0.03. Variant GGCAGAGCUCAGCACAGCGUGCCAAAGUGGCUGUGGCUAGACUGCC [A12G G22C] has a self-cleavage of 0.04. In the case of GGCAGAGCUCAGCACAGCGUGGCAAAGUGGCUGUGGCUAGUCUGCC [A12G A41U], the self-cleavage is reported as 0.04. GGCAGAGCUCAGCACAGCGUGGCAAAGUGGCUGUGGCUAGGCUGCC [A12G A41G] showed a self-cleavage of 0.03. In the case of GGCAGAGCUCAGCACAGCGUGGCAAAGUGGCUGUGGCUAGCCUGCC [A12G A41C], the self-cleavage is reported as 0.02. In the case of GGCAGAGCUCAGCACAGCGUGGCAAAGUGUCUGUGGCUAGACUGCC [A12G G30U], the self-cleavage is reported as 0.04. With GGCAGAGCUCAGCACAGCGUGGCAAAGUGACUGUGGCUAGACUGCC [A12G G30A] the self-cleavage was 0.03. GGCAGAGCUCAGCACAGCGUGGCAAAGUGCCUGUGGCUAGACUGCC [A12G G30C] showed a self-cleavage of 0.08. GGCAGAGCUCAGCACAGCGUGGCAAAGUGGCUGUGGCUAGACUGUC [A12G C45U] showed a self-cleavage of 0.05. For GGCAGAGCUCAGCACAGCGUGGCAAAGUGGCUGUGGCUAGACUGAC [A12G C45A], the self-cleavage was 0.1. For GGCAGAGCUCAGCACAGCGUGGCAAAGUGGCUGUGGCUAGACUGGC [A12G C45G], the self-cleavage was 0.06. Variant GGCAGAGCUCACCACAGCGAGGCAAAGUGGCUGUGGCUAGACUGCC [A12C U20A] has a self-cleavage of 0.03. GGCAGAGCUCACCACAGCGGGGCAAAGUGGCUGUGGCUAGACUGCC [A12C U20G] gave a self-cleavage of 0.01.
